Reference: patent publication US20180037654A1 (ADURO BIOTECH HOLDINGS EUROPE B V, published 2018)

Experiments:
[1] = molecular target: T1, human CTLA-4 (Y166G and Y183G) expressed on CHO-K1.hCTLA-4 cells (human, UniProt P16410 36-223); assay: CELISA on CHO-K1.hCTLA-4 cells
Protocol: Binding of the humanized antibodies to hCTLA-4 was studied in CELISA format. CHO-K1.hCTLA-4 cells were seeded in culture medium (DMEM-F12 (Gibco) with 10% Fetal Bovine Serum (Hyclone) and Pen/Strep (Gibco)) in tissue culture plates and cultured at 37° C., 5% CO₂ and 95% humidity until they were confluent. Subsequently, culture medium was removed and cells were incubated for 1 hour at 37° C., 5% CO₂ and 95% humidity with purified hCTLA-4 antibodies (10 μg/ml and dilutions thereof). Next, cells were washed with PBS/0.05% Tween (PBST) and incubated for 1 hour at 37° C., 5% CO₂ and 95% humidity with goat-anti-human IgG-HRP (Southern Biotechnology) or goat-anti-mouse IgG-HRP (Southern Biotechnology). Subsequently, cells were washed 3 times with PBST and anti-hCTLA-4 immunoreactivity was visualized with TMB Stabilized Chromagen (Invitrogen). Reactions were stopped with 0.5 M H₂SO₄ and absorbances were read at 450 and 610 nm.
Target sequence in this assay (P16410 36-223 Y201G/Y218G limits assumed): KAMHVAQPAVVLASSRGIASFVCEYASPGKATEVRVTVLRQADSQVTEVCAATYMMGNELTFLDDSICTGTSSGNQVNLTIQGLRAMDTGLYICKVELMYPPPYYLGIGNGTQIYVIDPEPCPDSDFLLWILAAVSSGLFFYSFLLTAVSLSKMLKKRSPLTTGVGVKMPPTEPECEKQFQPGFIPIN

[2] = molecular target: T1, human CTLA-4 (Y166G and Y183G) …; assay: CELISA on CHO-K1.hCTLA-4 cells (Example 6)
Protocol: (§1) In short, CELISA for hCTLA-4 binding was performed on CHO-K1.hCTLA-4 cells. […] Once the cells were confluent culture medium was removed and cells were incubated for 1 hour with the hCTL4.27 antibodies and control antibodies (10 μg/ml and dilutions thereof) at 37° C., 5% CO₂ and 95% humidity. […] Cells were then washed with PBST followed by addition of Streptavidin-HRP conjugate on the cells, which was incubated for 1 hour at 37° C., 5% CO₂ and 95% humidity. […] Reactions were stopped with 0.5 M H₂SO₄ and absorbances were read at 450 and 610 nm. IC50 values represent the concentration at which half of the inhibition is observed.

[3] = molecular target: T1, human CTLA-4 (Y166G and Y183G) …; assay: CELISA, blockade of biotinylated hCD80/Fc binding to CHO-K1.hCTLA-4 cells
Protocol: CHO-K1.hCTLA-4 cells were seeded in tissue culture plates and incubated at 37° C., 5% CO₂ and 95% humidity in culture medium. Once the cells were confluent culture medium was removed and cells were incubated for 1 hour with the humanized hCTL4.27 antibody variants (10 μg/ml and dilutions thereof) at 37° C., 5% CO₂ and 95% humidity. […] Cells were then washed with PBST followed by addition of Streptavidin-HRP conjugate on the cells, which was incubated for 1 hour at 37° C., 5% CO₂ and 95% humidity. […] Reactions were stopped with 0.5 M H₂SO₄ and absorbances were read at 450 and 610 nm. […] IC50 values represent the concentration at which half of the inhibition is observed.
Target sequence in this assay (P16410 36-223 Y201G/Y218G limits assumed): as above

[4] = molecular target: T1, human CTLA-4 (Y166G and Y183G) …; assay: CELISA, blockade of biotinylated hCD80/Fc binding to CHO-K1.hCTLA-4 cells (Example 6)
Protocol: as §1

[5] = molecular target: T1, human CTLA-4 (Y166G and Y183G) …; assay: CELISA, blockade of biotinylated hCD86/Fc binding to CHO-K1.hCTLA-4 cells (Example 6)
Protocol: as §1

human CTLA-4 = molecular target: T2, human CTLA-4 (human, UniProt P16410 36-223); assay: CELISA on CHO-K1 cells transiently transfected with human CTLA-4, panel Human
T2 construct: Endogenous CTLA-4 of stimulated human CD3+ T cells (stained after fixation and permeabilization) and membrane CTLA-4 of the Jurkat reporter cells; also called hCTLA-4; CTLA-4 expressed on human CD3+ T cells
T2 sequence: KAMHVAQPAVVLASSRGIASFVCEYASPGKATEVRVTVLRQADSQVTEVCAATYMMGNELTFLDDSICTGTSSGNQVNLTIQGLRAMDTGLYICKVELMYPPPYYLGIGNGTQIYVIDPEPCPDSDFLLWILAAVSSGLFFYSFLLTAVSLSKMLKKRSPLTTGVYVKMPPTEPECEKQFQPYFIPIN
Protocol: (§2) The cDNAs encoding these constructs (SEQ ID NO: 41 and 43, respectively) were synthesized and subcloned into the pCI-Neo vector (GeneArt). […] To this end CHO-K1 cells were transiently transfected, using Lipofectamine 2000 (Invitrogen), with the pCI-Neo vectors expressing human CTLA-4 (hCTLA-4), mouse CTLA-4 (mCTLA-4) (SEQ ID NO: 45), Hum-Mou-CTLA-4, and Mou-Hum-CTLA-4 respectively. The transfected cells were cultured at 37° C., 5% CO₂ and 95% humidity in medium (DMEM-F12 (Gibco) with 5% New Born Calf serum (Biowest) and Pen/Strep (Gibco)) until confluent. Subsequently, cells were trypsinized and seeded in tissue culture plates and cultured at 37° C., 5% CO₂ and 95% humidity in culture medium until confluent. Then, culture medium was removed and cells were incubated for 1 hour at 37° C., 5% CO₂ and 95% humidity with hCTLA-4 antibodies. Next, cells were washed with PBS/0.05% Tween (PBST) and incubated for 1 hour at 37° C., 5% CO₂ and 95% humidity with 1:2,000 goat-anti-human IgG-HRP (Jackson Immunoresearch). After that, cells were washed 3 times with PBST and anti-CTLA-4 immunoreactivity was visualized with TMB Stabilized Chromagen (Invitrogen).

Hum-Mou-CTLA-4 = molecular target: T3, Hum-Mou-CTLA-4 (human/mouse chimera); assay: CELISA on CHO-K1 cells transiently transfected with Hum-Mou-CTLA-4, panel Human/Mouse
T3 construct: Human residues on strand 1, 2, 5 and 6 and mouse residues on strand 3, 4, 7 and 8; transiently expressed on CHO-K1 cells; also called human-mouse variant; human-mouse exchange mutant
T3 chain: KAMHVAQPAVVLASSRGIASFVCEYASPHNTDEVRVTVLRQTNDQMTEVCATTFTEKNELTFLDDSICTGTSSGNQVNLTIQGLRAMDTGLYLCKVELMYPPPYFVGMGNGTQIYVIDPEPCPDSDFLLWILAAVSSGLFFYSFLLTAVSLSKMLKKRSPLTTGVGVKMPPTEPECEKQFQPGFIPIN
Protocol: as §2

Mou-Hum-CTLA-4 = molecular target: T4, Mou-Hum-CTLA-4 (mouse/human chimera); assay: CELISA on CHO-K1 cells transiently transfected with Mou-Hum-CTLA-4, panel Mouse/Human
T4 construct: Mouse residues on strand 1, 2, 5 and 6 and human residues on strand 3, 4, 7 and 8; transiently expressed on CHO-K1 cells; also called mouse-human variant; mouse-human exchange mutant
T4 chain: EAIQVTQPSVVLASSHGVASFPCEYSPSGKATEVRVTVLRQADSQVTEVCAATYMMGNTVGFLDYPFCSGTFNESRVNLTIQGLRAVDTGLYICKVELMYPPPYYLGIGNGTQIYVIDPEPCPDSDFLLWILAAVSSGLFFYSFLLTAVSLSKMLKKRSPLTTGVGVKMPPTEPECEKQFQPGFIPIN
Protocol: as §2

rhCTLA-4/Fc/6His = molecular target: T5, rhCTLA-4/Fc/6His (human); assay: BLI (Octet RED96), antibody amine-coupled to biosensor, rhCTLA-4/Fc 2.5-40 nM, 1:1 global fit
T5 construct: Bought from R&D Systems
Protocol: hCTLA4.27 binding kinetics and equilibrium binding constants were profiled using […] on the Octet RED96 and compared to several antibodies known in the art. […] Amine-reactive biosensors were pre-wet by immersing them in wells containing 0.1M MES pH=5.5 for 10 minutes. The biosensors were then activated using a 0.1M NHS/0.4M EDC mixture for 5 minutes. Antibodies were coupled by immersing the biosensors in a solution of 2.5 or 12 ug/mL antibody in 0.1M MES for 7.5 minutes. The biosensor surface was quenched using a solution of IM ethanolamine for 5 minutes. Biosensors were equilibrated in Octet kinetics buffer (ForteBio) for 5 minutes. Association of rhCTLA-4/Fc (R&D Systems) was observed by placing the biosensors in wells containing various rhCTLA-4/Fc concentrations (2.5-40 nM) and monitoring interferometry for 15 minutes. Dissociation was measured after transfer of the biosensors into kinetics buffer and monitoring of the interferometry signal for 45 minutes. The assay was run with a plate temperature of 30° C. The observed on and off rates (kon and kdis) were fit using a 1:1 binding global fit model comprising all concentrations tested, and the equilibrium binding constant KD was calculated.

[6] = molecular target: T1, human CTLA-4 (Y166G and Y183G) …; assay: CELISA, blockade of biotinylated hCD80/Fc binding to CHO-K1.hCTLA-4 cells (Example 6); blockade of hCD80/Fc binding to CHO-K1.hCTLA-4 cells
Protocol: as §1

T5 sequence (chain, as listed by the source limits assumed): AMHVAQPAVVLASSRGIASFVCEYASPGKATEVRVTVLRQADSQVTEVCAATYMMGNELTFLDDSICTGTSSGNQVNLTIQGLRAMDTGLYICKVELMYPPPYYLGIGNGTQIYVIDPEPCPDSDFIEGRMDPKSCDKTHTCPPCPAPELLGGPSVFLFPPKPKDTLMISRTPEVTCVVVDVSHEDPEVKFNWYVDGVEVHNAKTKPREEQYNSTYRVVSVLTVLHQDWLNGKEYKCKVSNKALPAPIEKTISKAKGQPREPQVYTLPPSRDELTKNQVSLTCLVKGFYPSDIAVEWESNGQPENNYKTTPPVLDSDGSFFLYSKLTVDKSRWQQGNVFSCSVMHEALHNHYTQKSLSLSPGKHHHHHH

Binder | EC50 [1] [nM] | EC50 [2] [nM] | IC50 [3] [nM] | IC50 [4] [nM] | IC50 [5] [nM] | EC50 (read off the curve) (human CTLA-4) [nM] | EC50 (read off the curve) (Hum-Mou-CTLA-4) [nM] | binding result (Mou-Hum-CTLA-4) | Kd (rhCTLA-4/Fc/6His) [nM] | koff (rhCTLA-4/Fc/6His) [s⁻¹] | kon (rhCTLA-4/Fc/6His) [M⁻¹ s⁻¹] | IC50 [6] [nM]
hCTLA4.27A.C4 (antibody, V domains shown, Chimeric: mouse variable domains on human IgG4, kappa; also called hCTLA4.27A chimeric hIgG4) VH: QVQLQQPGAVLVRPGVSVKLSCKASGYSFTTYWMNWVKQRPGQGLEWIGMIHPSDSETSLNQAFKDKATLTIDKSSSTAYMQLSSPTSEDSAVYFCARMGRRNPYYFDYWGQGTTLTVSS VL: DIQMTQSPVSLSVSVGETVTITCRPSENLYTNLAWYQQKQGKSPQLLVYGATNLADGVPSRFSGSGSGTQYSLRINSLQSEDFGTYYCQHLWGTPFTFGSGTKLELK | 0.033 | 0.053 | 1.61 | 1.6 | 1.21 | ~0.06 | ~0.08 | no binding (tested: log nM about 1.8 (about 60 nM)) | – | – | – | –
hCTLA4.27A (antibody, V domains shown, also called mouse hCTLA4.27A; parental antibody) VH: QVQLQQPGAVLVRPGVSVKLSCKASGYSFTTYWMNWVKQRPGQGLEWIGMIHPSDSETSLNQAFKDKATLTIDKSSSTAYMQLSSPTSEDSAVYFCARMGRRNPYYFDYWGQGTTLTVSS VL: DIQMTQSPVSLSVSVGETVTITCRPSENLYTNLAWYQQKQGKSPQLLVYGATNLADGVPSRFSGSGSGTQYSLRINSLQSEDFGTYYCQHLWGTPFTFGSGTKLELK | 0.048 | 0.053 | 2.17 | – | 2.17 | – | – | – | 2 | 0.00045 | 500000 | 2.71
